This is an account of results in US20200317779A1.

Where a chain is given by its changes, count along the chain named.

B1: E13 (antibody, human IgG1, lambda, L234A L235A, V domains shown)
VH: EVQLVESGGGLVQPGGSLKLSCAASGFTFNTYAMNWVRQASGKGLEWVARIRSKYNNYATYYADSVKDRFTISRDDSKNTAYLQMNSLKTEDTAVYYCVRHGNFGNSYVSWFAYWGQGTLVTVSS
VL: QAVVTQEPSLTVSPGGTVTLTCRSSTGAVTTSNYANWVQQKPGQAPRGLIYGTNKRAPWTPARFSGSLLGGKAALTLSGAQPEDEAEYYCALWYSNLWVFGGGTKLTVLG
B2: G08 (antibody, human IgG1, lambda, L234A L235A, V domains shown)
VH: B1 VH with K78Q, N79S
VL: B1 VL with V38F, Y51G, G71D
B3: F11 (antibody, human IgG1, lambda, L234A L235A, V domains shown)
VH: B1 VH with A81L
VL: B1 VL with G48T, Y51G
B4: H01 (antibody, human IgG1, lambda, L234A L235A, V domains shown)
VH: B1 VH with K78Q, N79S, A81L
VL: B1 VL with V38F, G48T
B5: F02 (antibody, human IgG1, lambda, L234A L235A, V domains shown)
VH: B1 VH with A81L
VL: B1 VL with V38F, G48T, G71D
B6: A10 (antibody, human IgG1, lambda, L234A L235A, V domains shown)
VH: B1 VH with A49G
VL: B1 VL with G48T, G71D
B7: G03 (antibody, human IgG1, lambda, L234A L235A, V domains shown)
VH: B1 VH with K78Q, N79S
VL: B1 VL with V38F, G48T, Y51G
B8: G13 (antibody, human IgG1, lambda, L234A L235A, V domains shown)
VH: B1 VH with K78Q, N79S
VL: B1 VL
B9: G05 (antibody, human IgG1, lambda, L234A L235A, V domains shown)
VH: B1 VH with K78Q, N79S
VL: B1 VL with V38F
B10: F13 (antibody, human IgG1, lambda, L234A L235A, V domains shown)
VH: B1 VH with A81L
VL: B1 VL
B11: F04 (antibody, human IgG1, lambda, L234A L235A, V domains shown)
VH: B1 VH with A81L
VL: B1 VL with V38F, G48T, Y51G, G71D
B12: F09 (antibody, human IgG1, lambda, L234A L235A, V domains shown)
VH: B1 VH with A81L
VL: B1 VL with G48T
B13: A09 (antibody, human IgG1, lambda, L234A L235A, V domains shown)
VH: B1 VH with A49G
VL: B1 VL with G48T
B14: F05 (antibody, human IgG1, lambda, L234A L235A, V domains shown)
VH: B1 VH with A81L
VL: B1 VL with V38F
B15: G09 (antibody, human IgG1, lambda, L234A L235A, V domains shown)
VH: B1 VH with K78Q, N79S
VL: B1 VL with G48T
B16: G11 (antibody, human IgG1, lambda, L234A L235A, V domains shown)
VH: B1 VH with K78Q, N79S
VL: B1 VL with G48T, Y51G
B17: G04 (antibody, human IgG1, lambda, L234A L235A, V domains shown)
VH: B1 VH with K78Q, N79S
VL: B1 VL with V38F, G48T, Y51G, G71D
B18: F08 (antibody, human IgG1, lambda, L234A L235A, V domains shown)
VH: B1 VH with A81L
VL: B1 VL with V38F, Y51G, G71D
B19: F12 (antibody, human IgG1, lambda, L234A L235A, V domains shown)
VH: B1 VH with A81L
VL: B1 VL with G48T, Y51G, G71D
B20: H02 (antibody, human IgG1, lambda, L234A L235A, V domains shown)
VH: B1 VH with K78Q, N79S, A81L
VL: B1 VL with V38F, G48T, G71D
B21: G01 (antibody, human IgG1, lambda, L234A L235A, V domains shown)
VH: B1 VH with K78Q, N79S
VL: B1 VL with V38F, G48T
B22: H03 (antibody, human IgG1, lambda, L234A L235A, V domains shown)
VH: B1 VH with K78Q, N79S, A81L
VL: B1 VL with V38F, G48T, Y51G
B23: F14 (antibody, human IgG1, lambda, L234A L235A, V domains shown)
VH: B1 VH with A81L
VL: B1 VL with G71D
B24: F01 (antibody, human IgG1, lambda, L234A L235A, V domains shown)
VH: B1 VH with A81L
VL: B1 VL with V38F, G48T
B25: G07 (antibody, human IgG1, lambda, L234A L235A, V domains shown)
VH: B1 VH with K78Q, N79S
VL: B1 VL with V38F, Y51G
B26: E14 (antibody, human IgG1, lambda, L234A L235A, V domains shown)
VH: B1 VH
VL: B1 VL with G71D
B27: G10 (antibody, human IgG1, lambda, L234A L235A, V domains shown)
VH: B1 VH with K78Q, N79S
VL: B1 VL with G48T, G71D
B28: A11 (antibody, human IgG1, lambda, L234A L235A, V domains shown)
VH: B1 VH with A49G
VL: B1 VL with G48T, Y51G
B29: G12 (antibody, human IgG1, lambda, L234A L235A, V domains shown)
VH: B1 VH with K78Q, N79S
VL: B1 VL with G48T, Y51G, G71D
B30: G06 (antibody, human IgG1, lambda, L234A L235A, V domains shown)
VH: B1 VH with K78Q, N79S
VL: B1 VL with V38F, G71D
B31: F06 (antibody, human IgG1, lambda, L234A L235A, V domains shown)
VH: B1 VH with A81L
VL: B1 VL with V38F, G71D
B32: F03 (antibody, human IgG1, lambda, L234A L235A, V domains shown)
VH: B1 VH with A81L
VL: B1 VL with V38F, G48T, Y51G
B33: G14 (antibody, human IgG1, lambda, L234A L235A, V domains shown)
VH: B1 VH with K78Q, N79S
VL: B1 VL with G71D
B34: F10 (antibody, human IgG1, lambda, L234A L235A, V domains shown)
VH: B1 VH with A81L
VL: B1 VL with G48T, G71D
B35: H04 (antibody, human IgG1, lambda, L234A L235A, V domains shown)
VH: B1 VH with K78Q, N79S, A81L
VL: B1 VL with V38F, G48T, Y51G, G71D
B36: F07 (antibody, human IgG1, lambda, L234A L235A, V domains shown)
VH: B1 VH with A81L
VL: B1 VL with V38F, Y51G
B37: G02 (antibody, human IgG1, lambda, L234A L235A, V domains shown)
VH: B1 VH with K78Q, N79S
VL: B1 VL with V38F, G48T, G71D

In the first assay the target is recombinant cynomolgus monkey CD3ε/δ heterodimer (cynomolgus monkey) (UniProt Q95LI5). The assay can be described thus: ELISA, coated CD3ε/δ.
Chain of recombinant cynomolgus monkey CD3ε/δ heterodimer (cynomolgus monkey) (Q95LI5 22-117, stated change not applied, chain 1 of 2): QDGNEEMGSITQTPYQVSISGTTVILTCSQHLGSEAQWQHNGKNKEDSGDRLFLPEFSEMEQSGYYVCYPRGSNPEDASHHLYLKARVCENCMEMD
Chain of recombinant cynomolgus monkey CD3ε/δ heterodimer (cynomolgus monkey) (Q95LI8 22-105, stated change not applied, chain 2 of 2, further chain): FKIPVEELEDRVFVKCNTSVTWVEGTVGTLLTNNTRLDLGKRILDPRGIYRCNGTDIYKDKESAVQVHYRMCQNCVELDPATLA
For the molecule B1, the Absorbance (450 nm) was determined as 0.114.

Take B2: the Absorbance (450 nm) worked out at 0.119.

Regarding B3, the Absorbance (450 nm) was 0.104.

As to B4, the Absorbance (450 nm) worked out at 0.154.

As to B5, the Absorbance (450 nm) turned out to be 0.076.

Turning to B6, the Absorbance (450 nm) turned out to be 0.066.

B7: the Absorbance (450 nm) was 0.088.

For the molecule B8, the Absorbance (450 nm) was determined as 0.242.

Take B9: the Absorbance (450 nm) is 0.072.

Consider B10, for which the Absorbance (450 nm) was 0.151.

Take B11: the Absorbance (450 nm) came out at 0.069.

In the case of B12, the Absorbance (450 nm) was determined as 0.084.

In the case of B13, the Absorbance (450 nm) amounted to 0.05.

As for B14, the Absorbance (450 nm) turned out to be 0.075.

As for B15, the Absorbance (450 nm) was 0.079.

Regarding B16, the Absorbance (450 nm) turned out to be 0.08.

On to B17, for which the Absorbance (450 nm) worked out at 0.063.

In the case of B18, the Absorbance (450 nm) amounted to 0.18.

Take B19: the Absorbance (450 nm) came out at 0.077.

As for B20, the Absorbance (450 nm) worked out at 0.08.

Consider B21, for which the Absorbance (450 nm) stood at 0.096.

With B22, the Absorbance (450 nm) amounted to 0.085.

On to B23, for which the Absorbance (450 nm) was found to be 0.1.

For the molecule B24, the Absorbance (450 nm) stood at 0.086.

On to B25, for which the Absorbance (450 nm) came to 0.316.

Regarding B26, the Absorbance (450 nm) turned out to be 0.078.

As for B27, the Absorbance (450 nm) came to 0.079.

As to B28, the Absorbance (450 nm) worked out at 0.105.

Take B29: the Absorbance (450 nm) stood at 0.065.

Take B30: the Absorbance (450 nm) came to 0.078.

As for B31, the Absorbance (450 nm) amounted to 0.096.

For the molecule B32, the Absorbance (450 nm) was found to be 0.101.

For B33, the Absorbance (450 nm) is 0.099.

As to B34, the Absorbance (450 nm) came to 0.091.

As for B35, the Absorbance (450 nm) was 0.068.

For B36, the Absorbance (450 nm) turned out to be 0.163.

As to B37, the Absorbance (450 nm) worked out at 0.069.

Another assay deals with recombinant human CD3ε/δ heterodimer (human) (UniProt P07766). The assay can be described thus: ELISA, coated CD3ε/δ.
Chain of recombinant human CD3ε/δ heterodimer (human) (P07766 23-126, stated change not applied, chain 1 of 2): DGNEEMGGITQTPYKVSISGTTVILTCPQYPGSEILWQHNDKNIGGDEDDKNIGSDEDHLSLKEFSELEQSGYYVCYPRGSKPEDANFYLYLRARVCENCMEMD
Chain of recombinant human CD3ε/δ heterodimer (human) (P04234 22-105, stated change not applied, chain 2 of 2, further chain): as the sequence (Q95LI8 22-105, stated change not applied, chain 2 of 2, further chain) above, with V5I, K15N, V20I, T32S, N33D, N34I, A64T, N74S, L83V counted along it
Take B1: the Absorbance (450 nm) was 0.139.

In the case of B2, the Absorbance (450 nm) was 0.137.

In the case of B3, the Absorbance (450 nm) was 0.138.

As for B4, the Absorbance (450 nm) turned out to be 0.121.

B5: the Absorbance (450 nm) came to 0.093.

As to B6, the Absorbance (450 nm) worked out at 0.097.

As for B7, the Absorbance (450 nm) was 0.098.

As to B8, the Absorbance (450 nm) worked out at 0.265.

For B9, the Absorbance (450 nm) worked out at 0.109.

In the case of B10, the Absorbance (450 nm) was found to be 0.192.

As for B11, the Absorbance (450 nm) amounted to 0.084.

Turning to B12, the Absorbance (450 nm) turned out to be 0.099.

Consider B13, for which the Absorbance (450 nm) was 0.092.

Regarding B14, the Absorbance (450 nm) turned out to be 0.105.

For B15, the Absorbance (450 nm) was 0.106.

On to B16, for which the Absorbance (450 nm) was 0.104.

Regarding B17, the Absorbance (450 nm) stood at 0.129.

Turning to B18, the Absorbance (450 nm) turned out to be 0.134.

Turning to B19, the Absorbance (450 nm) turned out to be 0.09.

As for B20, the Absorbance (450 nm) came out at 0.111.

As for B21, the Absorbance (450 nm) is 0.113.

Turning to B22, the Absorbance (450 nm) amounted to 0.113.

With B23, the Absorbance (450 nm) turned out to be 0.114.

In the case of B24, the Absorbance (450 nm) was found to be 0.118.

Regarding B25, the Absorbance (450 nm) worked out at 0.118.

Consider B26, for which the Absorbance (450 nm) stood at 0.105.

For the molecule B27, the Absorbance (450 nm) was 0.099.

B28: the Absorbance (450 nm) was 0.122.

With B29, the Absorbance (450 nm) came to 0.085.

For the molecule B30, the Absorbance (450 nm) is 0.118.

On to B31, for which the Absorbance (450 nm) amounted to 0.115.

Take B32: the Absorbance (450 nm) came to 0.128.

Take B33: the Absorbance (450 nm) came out at 0.105.

As for B34, the Absorbance (450 nm) was 0.118.

Consider B35, for which the Absorbance (450 nm) came to 0.077.

In the case of B36, the Absorbance (450 nm) was 0.133.

Consider B37, for which the Absorbance (450 nm) amounted to 0.146.
